Test results from article PMC9370705, “Conformational Dynamics of Human ALKBH2 Dioxygenase in the Course of DNA Repair as Revealed by Stopped-Flow Fluorescence Spectroscopy”.

What was measured:
[1] = molecular target: T1, ALKBH2 (Homo sapiens, UniProt Q6NS38 1-261); experiment: stopped-flow FRET; Fe(II), 2OG; initial complex k1/k-1; 50 mM HEPES-KOH pH 7.5, 50 mM KCl, 10 mM MgCl2, 25 °C (titration, 1 uM enzyme per legend); 2 mM EDTA for apo; stopped-flow buffer not printed in the material; conditions: protein: recombinant; (Ni-chelating column); label: 5'-FAM and 3'-BHQ1 on strand 1; blunt
T1 sequence: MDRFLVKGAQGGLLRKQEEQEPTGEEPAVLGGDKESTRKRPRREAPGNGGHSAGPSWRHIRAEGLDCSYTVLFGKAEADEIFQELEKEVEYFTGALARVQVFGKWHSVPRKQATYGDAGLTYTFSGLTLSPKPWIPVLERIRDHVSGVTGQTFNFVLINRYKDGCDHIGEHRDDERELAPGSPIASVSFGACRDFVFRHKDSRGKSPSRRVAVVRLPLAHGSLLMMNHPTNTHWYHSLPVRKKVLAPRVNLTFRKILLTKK

[2] = molecular target: T1, ALKBH2; experiment: stopped-flow fluorescence (FRET/εA); Fe(II), 2OG; overall KaSF (Eq. 1); 50 mM HEPES-KOH pH 7.5, 50 mM KCl, 10 mM MgCl2, 25 °C (titration, 1 uM enzyme per legend); 2 mM EDTA for apo; stopped-flow buffer not printed in the material; conditions: protein: recombinant; (Ni-chelating column); label: 5'-FAM and 3'-BHQ1 on strand 1; blunt
[3] = molecular target: T1, ALKBH2; experiment: stopped-flow εA fluorescence; Fe(II), 2OG; enzyme-product complex after εA repair; 50 mM HEPES-KOH pH 7.5, 50 mM KCl, 10 mM MgCl2, 25 °C (titration, 1 uM enzyme per legend); 2 mM EDTA for apo; stopped-flow buffer not printed in the material; conditions: protein: recombinant; (Ni-chelating column); blunt
[4] = molecular target: T1, ALKBH2; experiment: Trp fluorescence titration; Fe(II)/2OG complex per Figure 2 legend (text says ALKBH2); 50 mM HEPES-KOH pH 7.5, 50 mM KCl, 10 mM MgCl2, 25 °C (titration, 1 uM enzyme per legend); 2 mM EDTA for apo; stopped-flow buffer not printed in the material; conditions: protein: recombinant; (Ni-chelating column); blunt
[5] = molecular target: T1, ALKBH2; experiment: stopped-flow FRET; Fe(II), 2OG; overall KaSF (Eq. 1); 50 mM HEPES-KOH pH 7.5, 50 mM KCl, 10 mM MgCl2, 25 °C (titration, 1 uM enzyme per legend); 2 mM EDTA for apo; stopped-flow buffer not printed in the material; conditions: protein: recombinant; (Ni-chelating column); label: 5'-FAM and 3'-BHQ1 on strand 1; blunt
[6] = molecular target: T1, ALKBH2; experiment: stopped-flow FRET; Fe(II), 2OG; enzyme-product complex after m1A repair; 50 mM HEPES-KOH pH 7.5, 50 mM KCl, 10 mM MgCl2, 25 °C (titration, 1 uM enzyme per legend); 2 mM EDTA for apo; stopped-flow buffer not printed in the material; conditions: protein: recombinant; (Ni-chelating column); label: 5'-FAM and 3'-BHQ1 on strand 1; blunt
[7] = molecular target: T1, ALKBH2; experiment: stopped-flow FRET; Fe(II), 2OG; enzyme-product complex after εA repair; 50 mM HEPES-KOH pH 7.5, 50 mM KCl, 10 mM MgCl2, 25 °C (titration, 1 uM enzyme per legend); 2 mM EDTA for apo; stopped-flow buffer not printed in the material; conditions: protein: recombinant; (Ni-chelating column); label: 5'-FAM and 3'-BHQ1 on strand 1; blunt
[8] = molecular target: T1, ALKBH2; experiment: stopped-flow FRET; Fe(II), 2OG; overall KaSF (Eq. 1); Table 2 rates give about 2.3e5; 50 mM HEPES-KOH pH 7.5, 50 mM KCl, 10 mM MgCl2, 25 °C (titration, 1 uM enzyme per legend); 2 mM EDTA for apo; stopped-flow buffer not printed in the material; conditions: protein: recombinant; (Ni-chelating column); label: 5'-FAM and 3'-BHQ1 on strand 1; blunt

B1: εA_FRET (dsDNA)
DNA 1: ACAGGATCCGGCATA
DNA 2: TATGCCGGATCCTGT
modifications: 1,N6-ethenoadenine at position 6 of strand 1
Ka [1]: 860000 M⁻¹
Ka [2]: 1.9e+06 M⁻¹

B2: undamaged 15 nt duplex (A instead of m1A); also product A of m1A or εA repair (dsDNA)
DNA 1: ACAGGATCCGGCATA
DNA 2: TATGCCGGATCCTGT
Kd [3]: 2.2 ± 0.1 µM
Kd [4]: 7.8 ± 1.2 µM

B3: m1A_FRET (dsDNA)
DNA 1: ACAGGATCCGGCATA
DNA 2: TATGCCGGATCCTGT
modifications: N1-methyladenine at position 6 of strand 1
Ka [5]: 600000 M⁻¹

B4: repaired product of m1A_FRET or εA_FRET (dsDNA)
DNA 1: ACAGGATCCGGCATA
DNA 2: TATGCCGGATCCTGT
Kd [6]: 1.4 ± 0.2 µM
Kd [7]: 0.4 ± 0.01 µM

B5: m3C_FRET (dsDNA)
DNA 1: ACAGGATCCGGCATA
DNA 2: TATGCCGGATCCTGT
modifications: N3-methylcytosine at position 9 of strand 1
Ka [1]: 230000 M⁻¹
Ka [8]: 460000 M⁻¹
